Assay results reported in publication PMC8412337, “Alpha-single chains of collagen type VI inhibit the fibrogenic effects of triple helical collagen VI in hepatic stellate cells” (PLoS ONE, 2021).

B1: α2(VI): monomeric alpha 2 single chain of collagen VI isolated from human placentas (protein, UniProt P12110 21-1019, looked up)
Collagen alpha-2(VI) chain: QQQEVISPDTTERNNNCPEKTDCPIHVYFVLDTSESVTMQSPTDILLFHMKQFVPQFISQLQNEFYLDQVALSWRYGGLHFSDQVEVFSPPGSDRASFIKNLQGISSFRRGTFTDCALANMTEQIRQDRSKGTVHFAVVITDGHVTGSPCGGIKLQAERAREEGIRLFAVAPNQNLKEQGLRDIASTPHELYRNDYATMLPDSTEIDQDTINRIIKVMKHEAYGECYKVSCLEIPGPSGPKGYRGQKGAKGNMGEPGEPGQKGRQGDPGIEGPIGFPGPKGVPGFKGEKGEFGADGRKGAPGLAGKNGTDGQKGKLGRIGPPGCKGDPGNRGPDGYPGEAGSPGERGDQGGKGDPGRPGRRGPPGEIGAKGSKGYQGNSGAPGSPGVKGAKGGPGPRGPKGEPGRRGDPGTKGSPGSDGPKGEKGDPGPEGPRGLAGEVGNKGAKGDRGLPGPRGPQGALGEPGKQGSRGDPGDAGPRGDSGQPGPKGDPGRPGFSYPGPRGAPGEKGEPGPRGPEGGRGDFGLKGEPGRKGEKGEPADPGPPGEPGPRGPRGVPGPEGEPGPPGDPGLTECDVMTYVRETCGCCDCEKRCGALDVVFVIDSSESIGYTNFTLEKNFVINVVNRLGAIAKDPKSETGTRVGVVQYSHEGTFEAIQLDDERIDSLSSFKEAVKNLEWIAGGTWTPSALKFAYDRLIKESRRQKTRVFAVVITDGRHDPRDDDLNLRALCDRDVTVTAIGIGDMFHEKHESENLYSIACDKPQQVRNMTLFSDLVAEKFIDDMEDVLCPDPQIVCPDLPCQTELSVAQCTQRPVDIVFLLDGSERLGEQNFHKARRFVEQVARRLTLARRDDDPLNARVALLQFGGPGEQQVAFPLSHNLTAIHEALETTQYLNSFSHVGAGVVHAINAIVRSPRGGARRHAELSFVFLTDGVTGNDSLHESAHSMRKQNVVPTVLALGSDVDMDVLTTLSLGDRAAVFHEKDYDSLAQPGFFDRFIRWIC

Assays:
rat HSCs = conditions: blocking integrins in rat HSCs; cited from earlier work
Text: While the mechanisms underlying this anti-apoptotic property of CVI remain to be fully established, our studies point to a potent repression of BAX by soluble CVI. […] This growth factor withdrawal-induced p53 and Bax upregulation can be mitigated by ECM components through integrin-mediated adhesion and spreading as shown for rat HSCs.

CFSC = experiment: Fibrosis-associated gene expression, quantitative real-time PCR; assay type: cell-based, rat; conditions: serum-starved CFSC; 30 mg/l CVI plus 133 mg/l monomeric alpha chain; 24 h; n = 4
Protocol: 30 mg/l CVI, 133 mg/l of the monomeric alpha chains of CVI and/or TGF-β (2 ng/ml) were added after 24 h. […] Reverse transcribed complementary DNA templates were amplified by quantitative real-time polymerase chain reaction (PCR; Roche Diagnostics, Mannheim, Germany) using fluorogenic probes labeled with 6-carboxy-fluorescein and 6-carboxy-tetramethylrhodamin (Sigma- Genosys, Steinheim, Germany) and primer pairs (Invitrogen, Karlsruhe, Germany) specific for fibrosis-associated genes (for sequences see S2 Table). Gene expressions were normalized to glyceraldehyde phosphate dehydrogenase (GAPDH).

[1] = system: CVI-induced proliferation of HSC; experiment: Inhibition of CVI-induced proliferation by alpha single chains, [3H]-thymidine incorporation; assay type: cell-based, rat; conditions: 40 mg/l single chain, then 30 mg/l CVI; 24 h; primary rHSCs, n = three; Fig 4A legend: CFSC, n = 4
Protocol: (§1) 5x10^3CFSC in 100 μl 10% FBS were seeded into a 96-well flat-bottom tissue culture plate (Nunc, Roskilde, Denmark). After 24 hours, medium was completely removed, and cells were rinsed with 200 μl phosphate-buffered saline and 100 μl standard medium containing only 0.25% FBS were added. Cells were cultured for additional 24 h prior to treatment. Synchronized microcultures in 96-well plates were treated for 2 hours in reduction medium. When appropriate, the reduction medium was supplemented with 40 mg/l of α1(VI), α2(VI) or α3(VI). Then, 30 mg/l CVI or CI as control were added and cells were incubated for 24 h after which [^3H]-thymidine was added for additional 24 h. To assess effects of α3(VI)-derived 30-mer peptides on CVI-induced proliferation of CFSC, the reduction medium was supplemented with a 100-fold molar excess of the respective 30-mer peptides compared to CVI. [^3H]-thymidine incorporation was measured as described before. Cells treated with 150 mmol/l HAc or grown in 10% FBS served as negative and positive controls, respectively. During the last 4 hours of treatment, all cultures received 18.5 kBq [^3H]-thymidine (Amersham, Freiburg, Germany). Cells were fixed with 10% trichloroacetic acid and lysed by 200 mmol/l NaOH. After neutralization with 800 mmol/l HCl, lysates were collected to a glassfibre mat and the de-novo DNA synthesis was assessed by liquid scintillation (LKB Wallac, Bromma, Sweden) and the radioactive decay was counted (for) a minute (cpm).

[2] = system: 10% FBS-induced proliferation of HSC; experiment: Inhibition of 10% FBS-induced proliferation by alpha single chains, [3H]-thymidine incorporation; assay type: cell-based, rat; conditions: cells grown in 10% FBS, Fig 4A
Protocol: as §1

[3] = Live/Dead Viability/Cytotoxicity Kit (Calcein AM staining); assay type: cell-based; conditions: 24 h with individual chains; S4 Fig; three independent experiments
Protocol: Supplementary file pone.0254557.s004.pdf: S4 Fig Single CVI chains are not toxic To exclude that the effects of the alpha chains on proliferation or gene expression are due to cytotoxic effects, cells were treated 24 h with individual chains and cell viability was determined using the two-colour fluorescence Live/Dead™ Viability/Cytotoxicity Kit (Invitrogen™). Methanol (10% in medium) was used a positive control to induce cell toxicity. Medium was used as a non-toxic negative control. Since acetic acid (HAc) is used as solvent of the chains, cells treated with 0.15 M HAc were included as an additional control group. Shown are Mean ± SD of three independent experiments. Statistics were calculated by one-way ANOVA analysis and Tukey’s multiple comparisons test. Differences p<0.05 were considered significant. (PDF) Click here for additional data file.

Row | Molecule | increase in the Bax/Bcl-2 ratio (rat HSCs) [fold] | effect on CVI-induced expression of αSMA, CI and TGF-β (CFSC) | inhibition of DNA synthesis in the presence of CVI [1] [%] | effect on 10% FBS-induced proliferation [2] | cytotoxic effects (Calcein AM staining, cell viability) [3]
1 | Gly-Arg-Gly-Asp-Ser [GRGDS] | 3 |  |  |  | 
2 | α3(VI): monomeric alpha 3 single chain of collagen VI isolated from human placentas |  | largely blocked | 70 | did not block any FBS-induced proliferation | not secondary to cytotoxic effects
3 | B1 |  | largely blocked | 60 | also inhibited 10% FBS-induced proliferation | not secondary to cytotoxic effects
